Measured values: patent US20220251173A1
Where a chain is given by its changes, count along the chain named.

Tests used:
[1] = target: hepatitis B virus surface antigen (HBsAg) (hepatitis B virus); experiment: ELISA on commercial HBsAg plate, purified antibody, incubation and washes at pH 7.4, GAH-HRP, OD450/630
[2] = target: hepatitis B virus surface antigen (HBsAg) (hepatitis B virus); experiment: ELISA on commercial HBsAg plate, ratio of EC50 at pH 6.0 to pH 7.4
[3] = target: hepatitis B virus surface antigen (HBsAg) (hepatitis B virus); experiment: ELISA on commercial HBsAg plate, pH 7.4, quantified transfection supernatant
[4] = target: hepatitis B virus surface antigen (HBsAg) (hepatitis B virus); experiment: ELISA on commercial HBsAg plate, wash/incubation at pH 6.0, quantified transfection supernatant

B1: D3 DY (antibody, human IgG1, kappa, V domains shown)
VH: EVQLQESGPGLVKPSQTLSLTCAVSGSSITHGYHYNWIRQFPGNKLEWIGYIHYDGSVLYNPSLENRVTITRDTSKNQFFLKLSSVTAEDTAKYYCASGFDHWGQGTTLTVSS
VL: DVVMTQSPLSLPVTLGEPASISCRSSQSLVHSYGDNYLHWYLQKPGQSPKLLIYKVSNRFSGVPDRFSGSGSGTDFTLKISRVETEDLGVYYCSQNTHVPYTFGGGTKLEIKR
- EC50 (read off the curve) [1]: 0.05 µg/mL

B2: C32 (antibody, human IgG1, kappa, V domains shown)
VH: B1 VH with H31Y, G32R, Y35W, H53N, L59H
VL: B1 VL with N36T, V99L
- EC50(pH 6.0)/EC50(pH 7.4) [2]: 1.69
- EC50 [3]: 1.33 µg/mL
- EC50 [4]: 2.25 µg/mL

B3: D4 DY (antibody, human IgG1, kappa, V domains shown)
VH: B1 VH with Y35W
VL: B1 VL with V99L
- EC50 (read off the curve) [1]: 0.06 µg/mL

B4: D5 DY (antibody, human IgG1, kappa, V domains shown)
VH: B1 VH with Y35W
VL: B1 VL
- EC50 (read off the curve) [1]: 0.04 µg/mL
